Target: T1, adenosine A1 receptor fused to Renilla luciferase (A1R-Rluc) (UniProt P30542 1-326)
T1 sequence (looked up): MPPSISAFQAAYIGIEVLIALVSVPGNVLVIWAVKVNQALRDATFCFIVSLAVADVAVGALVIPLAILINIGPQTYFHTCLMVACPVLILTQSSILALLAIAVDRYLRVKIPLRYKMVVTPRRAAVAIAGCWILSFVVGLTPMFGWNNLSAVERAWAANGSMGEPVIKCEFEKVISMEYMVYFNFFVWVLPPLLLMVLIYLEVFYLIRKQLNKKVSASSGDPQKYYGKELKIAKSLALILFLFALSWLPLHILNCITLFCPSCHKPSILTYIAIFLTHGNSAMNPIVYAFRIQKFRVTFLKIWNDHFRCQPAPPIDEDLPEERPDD
Assay: FRET or BRET

BRET50: 2 ± 1 YFP/Rluc ratio
B1: dopamine D1 receptor fused to YFP (D1R-YFP) (receptor, UniProt P21728 1-446, looked up)
chain: MRTLNTSAMDGTGLVVERDFSVRILTACFLSLLILSTLLGNTLVCAAVIRFRHLRSKVTNFFVISLAVSDLLVAVLVMPWKAVAEIAGFWPFGSFCNIWVAFDIMCSTASILNLCVISVDRYWAISSPFRYERKMTPKAAFILISVAWTLSVLISFIPVQLSWHKAKPTSPSDGNATSLAETIDNCDSSLSRTYAISSSVISFYIPVAIMIVTYTRIYRIAQKQIRRIAALERAAVHAKNCQTTTGNGKPVECSQPESSFKMSFKRETKVLKTLSVIMGVFVCCWLPFFILNCILPFCGSGETQPFCIDSNTFDVFVWFGWANSSLNPIIYAFNADFRKAFSTLLGCYRLCPATNNAIETVSINNNGAAMFSSHHEPRGSISKECNLVYLIPHAVGSSEDLKKEEAAGIARPLEKLSPALSVILDYDTDVSLEKIQPITQNGQHPT
